Starred links: 1 amine or outer side, 2 acyl side, 3 side chain; linkers in the order of their positions; H or OH if unused. Non-standard residues stand in square brackets, D forms with d. Groups on a side chain read outwards from the residue. No end group written: not given here. *: point of attachment. C16 diacid = O=C(O)CCCCCCCCCCCCCCC(=O)*; γGlu = O=C(O)[C@H](CCC(=O)[*:2])N[*:1]; Aib = CC(C)(N)C(=O)O
T1: CRF1R receptor (anti-target) (UniProt P34998 24-415, limits assumed)
T1 sequence (looked up): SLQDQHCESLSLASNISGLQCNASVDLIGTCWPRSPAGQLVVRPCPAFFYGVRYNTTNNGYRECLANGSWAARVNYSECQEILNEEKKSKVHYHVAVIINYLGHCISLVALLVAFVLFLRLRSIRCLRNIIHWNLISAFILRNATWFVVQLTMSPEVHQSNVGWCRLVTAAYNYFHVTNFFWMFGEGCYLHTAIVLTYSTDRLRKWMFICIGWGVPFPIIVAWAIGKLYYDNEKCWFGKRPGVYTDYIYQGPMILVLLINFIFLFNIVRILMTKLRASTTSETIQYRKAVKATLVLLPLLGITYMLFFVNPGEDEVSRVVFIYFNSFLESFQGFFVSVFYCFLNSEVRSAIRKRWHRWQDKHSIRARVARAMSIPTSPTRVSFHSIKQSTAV

B1: peptide of SEQ ID NO: 187 (peptide)
peptide: IVLSLD[dV]PIKLK([γGlu-C16 diacid])QILLKQERQK[Aib]QREQAEKNKQILAQV-NH2
modifications: N-terminus assumed
SMILES: CC[C@H](C)[C@H](N)C(=O)N[C@H](C(=O)N[C@@H](CC(C)C)C(=O)N[C@@H](CO)C(=O)N[C@@H](CC(C)C)C(=O)N[C@@H](CC(=O)O)C(=O)N[C@@H](C(=O)N1CCC[C@H]1C(=O)N[C@H](C(=O)N[C@@H](CCCCN)C(=O)N[C@@H](CC(C)C)C(=O)N[C@@H](CCCCNC(=O)CC[C@H](NC(=O)CCCCCCCCCCCCCCC(=O)O)C(=O)O)C(=O)N[C@@H](CCC(N)=O)C(=O)N[C@H](C(=O)N[C@@H](CC(C)C)C(=O)N[C@@H](CC(C)C)C(=O)N[C@@H](CCCCN)C(=O)N[C@@H](CCC(N)=O)C(=O)N[C@@H](CCC(=O)O)C(=O)N[C@@H](CCCNC(=N)N)C(=O)N[C@@H](CCC(N)=O)C(=O)N[C@@H](CCCCN)C(=O)NC(C)(C)C(=O)N[C@@H](CCC(N)=O)C(=O)N[C@@H](CCCNC(=N)N)C(=O)N[C@@H](CCC(=O)O)C(=O)N[C@@H](CCC(N)=O)C(=O)N[C@@H](C)C(=O)N[C@@H](CCC(=O)O)C(=O)N[C@@H](CCCCN)C(=O)N[C@@H](CC(N)=O)C(=O)N[C@@H](CCCCN)C(=O)N[C@@H](CCC(N)=O)C(=O)N[C@H](C(=O)N[C@@H](CC(C)C)C(=O)N[C@@H](C)C(=O)N[C@@H](CCC(N)=O)C(=O)N[C@H](C(N)=O)C(C)C)[C@@H](C)CC)[C@@H](C)CC)[C@@H](C)CC)C(C)C)C(C)C
B2: peptide of SEQ ID NO: 196 (peptide)
peptide: IVLSLD[dV]PIGLK([γGlu-C16 diacid])QILLKQERQKK[Aib]REQAEKNKRILERV-NH2
modifications: N-terminus assumed
SMILES: CC[C@H](C)[C@H](N)C(=O)N[C@H](C(=O)N[C@@H](CC(C)C)C(=O)N[C@@H](CO)C(=O)N[C@@H](CC(C)C)C(=O)N[C@@H](CC(=O)O)C(=O)N[C@@H](C(=O)N1CCC[C@H]1C(=O)N[C@H](C(=O)NCC(=O)N[C@@H](CC(C)C)C(=O)N[C@@H](CCCCNC(=O)CC[C@H](NC(=O)CCCCCCCCCCCCCCC(=O)O)C(=O)O)C(=O)N[C@@H](CCC(N)=O)C(=O)N[C@H](C(=O)N[C@@H](CC(C)C)C(=O)N[C@@H](CC(C)C)C(=O)N[C@@H](CCCCN)C(=O)N[C@@H](CCC(N)=O)C(=O)N[C@@H](CCC(=O)O)C(=O)N[C@@H](CCCNC(=N)N)C(=O)N[C@@H](CCC(N)=O)C(=O)N[C@@H](CCCCN)C(=O)N[C@@H](CCCCN)C(=O)NC(C)(C)C(=O)N[C@@H](CCCNC(=N)N)C(=O)N[C@@H](CCC(=O)O)C(=O)N[C@@H](CCC(N)=O)C(=O)N[C@@H](C)C(=O)N[C@@H](CCC(=O)O)C(=O)N[C@@H](CCCCN)C(=O)N[C@@H](CC(N)=O)C(=O)N[C@@H](CCCCN)C(=O)N[C@@H](CCCNC(=N)N)C(=O)N[C@H](C(=O)N[C@@H](CC(C)C)C(=O)N[C@@H](CCC(=O)O)C(=O)N[C@@H](CCCNC(=N)N)C(=O)N[C@H](C(N)=O)C(C)C)[C@@H](C)CC)[C@@H](C)CC)[C@@H](C)CC)C(C)C)C(C)C
B3: peptide of SEQ ID NO: 193 (peptide)
peptide: IVLSLD[dV]PIGLK([γGlu-C16 diacid])QILLKQERQKK[Aib]REQAETNKRILERV-NH2
modifications: N-terminus assumed
SMILES: CC[C@H](C)[C@H](N)C(=O)N[C@H](C(=O)N[C@@H](CC(C)C)C(=O)N[C@@H](CO)C(=O)N[C@@H](CC(C)C)C(=O)N[C@@H](CC(=O)O)C(=O)N[C@@H](C(=O)N1CCC[C@H]1C(=O)N[C@H](C(=O)NCC(=O)N[C@@H](CC(C)C)C(=O)N[C@@H](CCCCNC(=O)CC[C@H](NC(=O)CCCCCCCCCCCCCCC(=O)O)C(=O)O)C(=O)N[C@@H](CCC(N)=O)C(=O)N[C@H](C(=O)N[C@@H](CC(C)C)C(=O)N[C@@H](CC(C)C)C(=O)N[C@@H](CCCCN)C(=O)N[C@@H](CCC(N)=O)C(=O)N[C@@H](CCC(=O)O)C(=O)N[C@@H](CCCNC(=N)N)C(=O)N[C@@H](CCC(N)=O)C(=O)N[C@@H](CCCCN)C(=O)N[C@@H](CCCCN)C(=O)NC(C)(C)C(=O)N[C@@H](CCCNC(=N)N)C(=O)N[C@@H](CCC(=O)O)C(=O)N[C@@H](CCC(N)=O)C(=O)N[C@@H](C)C(=O)N[C@@H](CCC(=O)O)C(=O)N[C@H](C(=O)N[C@@H](CC(N)=O)C(=O)N[C@@H](CCCCN)C(=O)N[C@@H](CCCNC(=N)N)C(=O)N[C@H](C(=O)N[C@@H](CC(C)C)C(=O)N[C@@H](CCC(=O)O)C(=O)N[C@@H](CCCNC(=N)N)C(=O)N[C@H](C(N)=O)C(C)C)[C@@H](C)CC)[C@@H](C)O)[C@@H](C)CC)[C@@H](C)CC)C(C)C)C(C)C
B4: peptide of SEQ ID NO: 189 (peptide)
peptide: IVLSLD[dV]PIKLK([γGlu-C16 diacid])QILLKQERQKK[Aib]RQKAEKNKQILAQV-NH2
modifications: N-terminus assumed
SMILES: CC[C@H](C)[C@H](N)C(=O)N[C@H](C(=O)N[C@@H](CC(C)C)C(=O)N[C@@H](CO)C(=O)N[C@@H](CC(C)C)C(=O)N[C@@H](CC(=O)O)C(=O)N[C@@H](C(=O)N1CCC[C@H]1C(=O)N[C@H](C(=O)N[C@@H](CCCCN)C(=O)N[C@@H](CC(C)C)C(=O)N[C@@H](CCCCNC(=O)CC[C@H](NC(=O)CCCCCCCCCCCCCCC(=O)O)C(=O)O)C(=O)N[C@@H](CCC(N)=O)C(=O)N[C@H](C(=O)N[C@@H](CC(C)C)C(=O)N[C@@H](CC(C)C)C(=O)N[C@@H](CCCCN)C(=O)N[C@@H](CCC(N)=O)C(=O)N[C@@H](CCC(=O)O)C(=O)N[C@@H](CCCNC(=N)N)C(=O)N[C@@H](CCC(N)=O)C(=O)N[C@@H](CCCCN)C(=O)N[C@@H](CCCCN)C(=O)NC(C)(C)C(=O)N[C@@H](CCCNC(=N)N)C(=O)N[C@@H](CCC(N)=O)C(=O)N[C@@H](CCCCN)C(=O)N[C@@H](C)C(=O)N[C@@H](CCC(=O)O)C(=O)N[C@@H](CCCCN)C(=O)N[C@@H](CC(N)=O)C(=O)N[C@@H](CCCCN)C(=O)N[C@@H](CCC(N)=O)C(=O)N[C@H](C(=O)N[C@@H](CC(C)C)C(=O)N[C@@H](C)C(=O)N[C@@H](CCC(N)=O)C(=O)N[C@H](C(N)=O)C(C)C)[C@@H](C)CC)[C@@H](C)CC)[C@@H](C)CC)C(C)C)C(C)C
B5: peptide of SEQ ID NO: 195 (peptide)
peptide: IVLSLD[dV]PIGLK([γGlu-C16 diacid])QILLKQERQKK[Aib]RQQAETNKRILERV-NH2
modifications: N-terminus assumed
SMILES: CC[C@H](C)[C@H](N)C(=O)N[C@H](C(=O)N[C@@H](CC(C)C)C(=O)N[C@@H](CO)C(=O)N[C@@H](CC(C)C)C(=O)N[C@@H](CC(=O)O)C(=O)N[C@@H](C(=O)N1CCC[C@H]1C(=O)N[C@H](C(=O)NCC(=O)N[C@@H](CC(C)C)C(=O)N[C@@H](CCCCNC(=O)CC[C@H](NC(=O)CCCCCCCCCCCCCCC(=O)O)C(=O)O)C(=O)N[C@@H](CCC(N)=O)C(=O)N[C@H](C(=O)N[C@@H](CC(C)C)C(=O)N[C@@H](CC(C)C)C(=O)N[C@@H](CCCCN)C(=O)N[C@@H](CCC(N)=O)C(=O)N[C@@H](CCC(=O)O)C(=O)N[C@@H](CCCNC(=N)N)C(=O)N[C@@H](CCC(N)=O)C(=O)N[C@@H](CCCCN)C(=O)N[C@@H](CCCCN)C(=O)NC(C)(C)C(=O)N[C@@H](CCCNC(=N)N)C(=O)N[C@@H](CCC(N)=O)C(=O)N[C@@H](CCC(N)=O)C(=O)N[C@@H](C)C(=O)N[C@@H](CCC(=O)O)C(=O)N[C@H](C(=O)N[C@@H](CC(N)=O)C(=O)N[C@@H](CCCCN)C(=O)N[C@@H](CCCNC(=N)N)C(=O)N[C@H](C(=O)N[C@@H](CC(C)C)C(=O)N[C@@H](CCC(=O)O)C(=O)N[C@@H](CCCNC(=N)N)C(=O)N[C@H](C(N)=O)C(C)C)[C@@H](C)CC)[C@@H](C)O)[C@@H](C)CC)[C@@H](C)CC)C(C)C)C(C)C

Molecular target: T1, CRF1R receptor (anti-target)
Test: cell-based or functional assay

| CRF1/CRF2 ratio (of EC50) | CRF1 EC50 (cAMP, HTRF) [nM] | Binder |
| --- | --- | --- |
| > 500 | > 100 | B1 |
| > 500 | > 100 | B2 |
| > 500 | > 100 | B3 |
| > 500 | > 100 | B4 |
| > 500 | > 100 | B5 |

Reference: patent US12679878B2, “CRF2 receptor agonists and their use in therapy” (SANOFI, priority 2020, dated 2026)
